Test results published in the supplement of paper PMC9170038.

Key:
MS2 coat protein [1] = assay: apparent KD of MS2 coat protein, switch ON state; designed switch direction (-1 OFF switch, 1 ON switch): -1; higher = weaker reporter binding; settings: FMN input: 0 or 200 uM; Eterna round: R93 (includes R88 designs)
Method in brief: (§1)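 Apparent KD per design is the median of normalised cluster binding-curve fits. Designed RNA switches transcribed on-chip from Illumina sequencing clusters were titrated with SNAP-549-labelled MS2 coat protein in twofold steps from 0.7 or 1.5 nM to 3 µM, with 0.8–1.5 h down to 10–20 min per step. Buffer: 100 mM Tris-HCl pH 7.5, 80 mM KCl, 4 mM MgCl2, without or with constant ligand.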

MS2 coat protein [2] = assay: apparent KD of MS2 coat protein, switch OFF state (with FMN for OFF switches, without FMN for ON switches); designed switch direction (-1 OFF switch, 1 ON switch): -1; higher = weaker reporter binding; settings: FMN input: 0 or 200 uM; Eterna round: R93 (includes R88 designs)
Method in brief: as §1

Sequence | apparent KD of MS2 coat protein (MS2 coat protein [1]) | apparent KD of MS2 coat protein (MS2 coat protein [2])
AUCUAGUCAGGAUAUGACUACAUAAAAAAAAAAAAAUGUAGUCAGAAGGGACAUGAGGAUCACCCAUGUACUAA [HSL_Exclusion 4 64% 1] | 37.3 nM | 24.8 nM
AAAUUGUCAGGAUAUCGUAUAACUCUAAAAUAGAGGAGAUACGAGAAGGGACAUGAGGAUCACCCAUGUAAAAC [May 87] | 61.4 nM | 57.2 nM
AAAAAGACAGGAUAUACAUGAAAAAAAAAAAAAAAAAAAAAACAUGAGGAUCACCCAUGUAGAAGGGUCAAAAA [Starry's Exclusion 2] | 71.6 nM | 54.6 nM
AAGAAACAUGAGGAUCACCCAUGUCAGGAUAUAGAAAAGAAAAGAAAAGAAAGAAGAACUAGAAGGGACAAAGG [Menkare] | 34.1 nM | 34 nM
AGCAAGUAAGGAUAUGCAAAGUCAGGACACACACUGACGAAGCAGAAGGUACAUGAGGAUCACCCAUGUAAGCA [Mat - Exaclusion 4 - Eli mod - D61] | 25.6 nM | 18 nM
AAAACGUGAGGAUAUACUAAAAUAAAAAAUUAUGUUAAAAAACAUGAGGAUCACCCAUGUAGAAGGCACAAAAA [AJ 3] | 29.8 nM | 28.6 nM
AAGAAGAGAGGAUAUACUAAAGAAAUGAAAAGAAAGAAAGAACAUGAGGAUCACCCAUGUAGAAGGCUCAAGAA [Snaaib] | 27.8 nM | 18.1 nM
AGCACGUCAGGAUAUACGAACAAAACGGGAGAACUAAAGGGACAUGAGGAUCACCCAUGUAGAAGGGACAAGCA [Diamond 91] | 85.6 nM | 91.1 nM
AAGAAUGCAGGAUAUACAAAAUAAAAGAAAAGAAAGAAAGAACAUGAGGAUCACCCAUGUAGAAGGGCGAAGAA [Sewadjkare Hori] | 44.4 nM | 34.4 nM
AUAAAGUCAGGAUAUGUAAGAAUAACGAAAGUUAUAAAGAAACAGAAGGGACAUGAGGAUCACCCAUGUAAAAU [Ex 4 #3] | 43.1 nM | 31 nM
GGAGUGCAAGGAUAUACAUGAGGAUCACCCAUGUGAGAGAAAAAAGUGAGAAAGAAAAGUAGAAGGUGCGUUCG [salish99-ex3-131] | 29.2 nM | 44.8 nM
AAAAAGGGAGGAUAUGCAUACACACAAAAAAAAAAACCGGGACAUGAGGAUCACCCAUGUAGAAGGCCCAAAAA [Dora Explored 6 - Jieux - Exclusion 2] | 33.5 nM | 25 nM
GGGUCACAUGAGGAUCACCCAUGUAAGGAUAUGCUAGGGAUGGAAGCCAGGCCAAAAAGCAGAAGGUACUAAAG [Janelle Amethyst 18 Mod 15 - Jieux - Exclusion 1] | 41.2 nM | 85.8 nM
CUCUUGUGAGGAUAUAGAAGAAAAGAAGAGAAAGAAAAGAACUAGAAGGCACAUGAGGAUCACCCAUGUAAGAA [EteRNA is fun!] | 34.3 nM | 39.9 nM
AAAAAGUCAGGAUAUAUCAAAGCCUAUGAAAGUGGGAAAGGGUAGAAGGGACAUGAGGAUCACCCAUGUAAAAA [Banishment 10 - Jieux - Exclusion 4] | 62.3 nM | 38.5 nM
AACAGUAGAGGAUAUACAUGAGGAUCACCCAUGUGAGAAACCACUGGCGUACCAGAAAGUAGAAGGCUACUGGA [Moding Maslow Revisited (73) 30] | 103 nM | 34.6 nM
AAGAAAGGAGGAUAUACAUGAGGAUCACCCAUGUAAAAGAAAGAGGGAAAAGAGAAAAGUAGAAGGCCUAAGAA [Ptolemy IX Soter II] | 30.8 nM | 39.1 nM
AAGAAGUAAGGAUAUGCUGCUCGUCACAAAAGUGAUGAGUAGCAGAAGGUACAUGAGGAUCACCCAUGUAAAGA [JL eternac mod 3] | 26 nM | 20.3 nM
AAGACUAGAGGAUAUACAUGAGGAUCACCCAUGUAACUGUCAGGUGACUGACGGAGAUGUAGAAGGCUAGUCAA [Wider Swing] | 17.2 nM | 41.2 nM
CUUAUGUGAGGAUAUCAGUAGUAAAAAAAAAAAAUUACUACUGAGAAGGCACAUGAGGAUCACCCAUGUGCCUU [EX4 323: Super Stable 23] | 14.4 nM | 14.2 nM
CACAAGUCAGGAUAUUCGACAAGUAAAUCAGUAGAUCAAAAGAAGAAGGGACAUGAGGAUCACCCAUGUAAAUA [JR_Exc004_Sub402] | 39.1 nM | 22.3 nM
AAAAAACAUGAGGAUCACCCAUGUAAGGAUAUGCUGAAAAACACGGAAAAAACGUGCAGCAGAAGGUACAAAAG [Mat - Exclusion 1 - Eli mod - D90] | 16.1 nM | 33.9 nM
AAAAAGUGAGGAUAUGCGCUGUCAAGUAGACACGAGCAGUCGUAGAAGGCACAUGAGGAUCACCCAUGUUUAAA [EX4 Malc#23] | 28.5 nM | 19.4 nM

Sequence | apparent KD of MS2 coat protein (MS2 coat protein [1]) | apparent KD of MS2 coat protein (MS2 coat protein [2])
GAAAAGUGAGGAUAUUCGGAUAGGAAAACGAAAACCUAUCCGAAGAAGGCACAUGAGGAUCACCCAUGUGGGAA [Mat - Exaclusion 4 - Eli mod - D49] | 80.3 nM | 119 nM
AAAAAGUGAGGAUAUACAUGAGGAUCACCCAUGUAAAAGGUCGCGGGAGGGAGGGACGGUAGAAGGCGCAAAAA [Excls3-VII] | 15.7 nM | 22.2 nM
AACACACAUGAGGAUCACCCAUGUAAGGAUAUGCGAGCAAGAAGAAAGAACAGAAAAAGCAGAAGGUACACACA [Amethyst 75] | 29.6 nM | 29.5 nM
ACAUGACAUGAGGAUCACCCAUGUGAGGAUAUGCGAAAAAAAAAAAAAAAAAAAAUUGGCAGAAGGCACAAAAU [Jean Baudrillard] | 202 nM | 153 nM
AAAAAGUUAGGAUAUACAUGAGGAUCACCCAUGUGCACGUAUGGAGAAUAUGGUGGUGGUAGAAGGGACAAAAA [EX2 Malc#19] | 43.2 nM | 65.5 nM
AAAAAGUGAGGAUAUACAUGAGGAUCACCCAUGUGAAAUCGGAAAAAAAAGGAAAAAAGUAGAAGGCACAAAAA [Mat - Mod of Eli] | 17.1 nM | 19.3 nM
CAAAGGUGAGGAUAUGCAUAACUAUGACGAAAGUCAUAAACACAUGAGGAUCACCCAUGUAGAAGGCACCACAA [e2-2] | 37.2 nM | 18.8 nM
AAAAAGAGAGGAUAUACAGGAGGACCACCACAAAAAAAAAUACAUGAGGAUCACCCAUGUAGAAGGCUCAAAAA [Default title] | 35.1 nM | 66.1 nM
AAAAAACAUGAGGAUCACCCAUGUGAGGAUAUGAUGCGAAUAAAGAAAGAAUAAAGCAUCAGAAGGCACACCAA [Mat - Exclusion 1 - Eli mod - D61] | 27.9 nM | 48.7 nM
GGGUACGCAGGAUAUACAUGAAAAAAAAAAAAAAAAAAAAAACAUGAGGAUCACCCAUGUAGAAGGGCGUAUCC [hsl_exclusion2] | 92.5 nM | 314 nM
AAAAAUCGAGGAUAUACAUGAGGAUCACCCAUGUGGGACCAAGAAAACACAAAAGAAAGUAGAAGGCGAUAAAA [Ex 3 May 23] | 21.9 nM | 76.4 nM
UAAAGACAUGAGGAUCACCCAUGUGAGGAUAUCGGAGGUGACGGAACAUCGAGUUCGGCGAGAAGGCGCAGGAA [JR_Exc001_Sub408] | 69.6 nM | 49 nM
GGUUGGCGAGGAUAUACAUGAGGAUCACCCAUGUGAGAGAAAAAAGUGAGAAAGAAUAGUAGAAGGCGCUGACG [salish99-ex3-40] | 42.5 nM | 255 nM
AAAGGGUCAGGAUAUUGAUUAAUAAUAAAAUAAAUAAAGAUCAAGAAGGGACAUGAGGAUCACCCAUGUAUAAA [May 78] | 40.5 nM | 63 nM
GAAAACUGAGGAUAUACUUUGGGAAAAGAAAAGAUGAUGUUACAUGAGGAUCACCCAUGUAGAAGGCAGAAAAG [Mat - Exclusion 2 - Mod - D151] | 25.3 nM | 34.5 nM
AAAAAGUCAGGAUAUCGGAAAAAAAAAAUAAAAAAAAAAAACGAGAAGGGACAUGAGGAUCACCCAUGUAUGAC [Mat - Exclusion 4 - Mayanna - D112] | 37.4 nM | 41.3 nM
AAAACGUGAGGAUAUGCACCAAAAAAAAAAAAACGGGUACGACAUGAGGAUCACCCAUGUAGAAGGCACGAAAA [Frodo Flailing 7 - Jieux - Exclusion 2] | 56 nM | 39.4 nM
AGAAAGUCAGGAUAUACGAAUAAGAAUAAAGACGAGAACGGACAUGAGGAUCACCCAUGUAGAAGGGACAAGAA [Diamond 16] | 51.6 nM | 21.8 nM
AAAAUGUCAGGAUAUGCGAAGGCGUCUGAUAGAAGAGGAUAGCAGAAGGGACAUGAGGAUCACCCAUGUGGAAA [Opal 25] | 72.3 nM | 124 nM
AGAUGACAAGGAUAUACUAGGGAUGCUAGUCGAGAAGAAGAACAUGAGGAUCACCCAUGUAGAAGGUGUAAGAA [JR_Exc002_Sub1703] | 35.4 nM | 33.8 nM
CUGCAGUAAGGAUAUACAUGAGGAUCACCCAUGUAGGAACUUACAGAACGAAACGCAUGUAGAAGGUACCAGAA [Enususge] | 14.2 nM | 14.3 nM
AAGAAACAAGGAUAUACAUGAGGAUCACCCAUGUAAAAGAAAGAAAGGGAAGAGAAAAGUAGAAGGUGUAAGAA [Publius Rubrius Barbarus] | 26.1 nM | 46 nM
